How the values were obtained:
Grb2 SH2 = Grb2 SH2 (UniProt P62993); assay: SH2 binding enrichment of the phosphorylated peptide, bacterial display (enrichment ratio); higher = better substrate or ligand; peptides without Tyr show the background
c-Src SH2 = assay: as above
SHP2-C SH2 = assay: as above
Hck = Hck (UniProt P08631); assay: phosphorylation enrichment, bacterial display (enrichment ratio); higher = better substrate or ligand; peptides without Tyr show the background
Jak2 = Jak2 (UniProt O60674); assay: as above
c-Abl (mouse) = assay: as above
EPHB2 = EPHB2 (UniProt P29323); assay: as above
FGFR1 = FGFR1 (UniProt P11362); assay: as above
Fer (mouse) = assay: as above
Fes = Fes (UniProt P07332); assay: as above
EPHB1 = EPHB1 (UniProt P54762); assay: as above
AncSZ = assay: as above
FGFR3 = FGFR3 (UniProt P22607); assay: as above
MERTK = MERTK (UniProt Q12866); assay: as above
Fyn = Fyn (UniProt P06241); assay: as above
c-Src = assay: as above
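Throughout, for SH2 binding enrichment of the phosphorylated peptide, bacterial display: peptide library displayed on the E. coli surface as eCPX fusions, selected cells deep-sequenced, score is each peptide's frequency after selection divided by its frequency in the input.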
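Throughout, for phosphorylation enrichment, bacterial display: 11-residue human phosphosite peptides and single-mutation variants displayed on the E. coli surface, counted by deep sequencing, each peptide's frequency after selection divided by its frequency in the unselected input library; frequency after pTyr selection over input frequency; kinase dosed for 20-30% of maximal phosphorylation in three min.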

Sequence of EPHB2 (P29323 whole entry, looked up): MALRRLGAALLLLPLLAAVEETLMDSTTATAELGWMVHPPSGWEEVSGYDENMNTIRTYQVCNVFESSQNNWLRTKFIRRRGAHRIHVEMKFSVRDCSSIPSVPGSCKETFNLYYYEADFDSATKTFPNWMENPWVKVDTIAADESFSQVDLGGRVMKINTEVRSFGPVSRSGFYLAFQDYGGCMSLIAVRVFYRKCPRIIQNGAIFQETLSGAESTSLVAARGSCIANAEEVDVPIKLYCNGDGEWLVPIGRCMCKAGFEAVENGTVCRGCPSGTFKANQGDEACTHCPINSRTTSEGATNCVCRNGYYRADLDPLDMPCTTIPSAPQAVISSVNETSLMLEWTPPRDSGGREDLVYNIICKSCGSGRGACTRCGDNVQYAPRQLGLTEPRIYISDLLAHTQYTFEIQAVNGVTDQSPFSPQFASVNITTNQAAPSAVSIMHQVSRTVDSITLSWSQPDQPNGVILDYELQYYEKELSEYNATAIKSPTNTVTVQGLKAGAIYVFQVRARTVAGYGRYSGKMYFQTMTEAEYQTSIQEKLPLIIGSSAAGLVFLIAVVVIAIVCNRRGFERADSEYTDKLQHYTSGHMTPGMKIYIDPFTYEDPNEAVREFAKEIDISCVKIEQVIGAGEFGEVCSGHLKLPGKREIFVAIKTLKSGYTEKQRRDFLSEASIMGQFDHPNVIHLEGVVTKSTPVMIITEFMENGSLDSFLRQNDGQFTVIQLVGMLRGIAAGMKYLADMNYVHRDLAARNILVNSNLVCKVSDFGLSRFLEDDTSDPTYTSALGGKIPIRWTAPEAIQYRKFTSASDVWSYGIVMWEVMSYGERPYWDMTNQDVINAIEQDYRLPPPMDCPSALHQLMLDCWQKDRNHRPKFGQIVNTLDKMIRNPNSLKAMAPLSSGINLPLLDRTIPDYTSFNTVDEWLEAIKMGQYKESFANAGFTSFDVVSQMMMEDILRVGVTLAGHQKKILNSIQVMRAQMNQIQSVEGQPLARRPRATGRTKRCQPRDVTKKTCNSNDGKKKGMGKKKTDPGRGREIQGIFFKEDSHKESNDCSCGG
Sequence of FGFR3 (P22607 whole entry, looked up): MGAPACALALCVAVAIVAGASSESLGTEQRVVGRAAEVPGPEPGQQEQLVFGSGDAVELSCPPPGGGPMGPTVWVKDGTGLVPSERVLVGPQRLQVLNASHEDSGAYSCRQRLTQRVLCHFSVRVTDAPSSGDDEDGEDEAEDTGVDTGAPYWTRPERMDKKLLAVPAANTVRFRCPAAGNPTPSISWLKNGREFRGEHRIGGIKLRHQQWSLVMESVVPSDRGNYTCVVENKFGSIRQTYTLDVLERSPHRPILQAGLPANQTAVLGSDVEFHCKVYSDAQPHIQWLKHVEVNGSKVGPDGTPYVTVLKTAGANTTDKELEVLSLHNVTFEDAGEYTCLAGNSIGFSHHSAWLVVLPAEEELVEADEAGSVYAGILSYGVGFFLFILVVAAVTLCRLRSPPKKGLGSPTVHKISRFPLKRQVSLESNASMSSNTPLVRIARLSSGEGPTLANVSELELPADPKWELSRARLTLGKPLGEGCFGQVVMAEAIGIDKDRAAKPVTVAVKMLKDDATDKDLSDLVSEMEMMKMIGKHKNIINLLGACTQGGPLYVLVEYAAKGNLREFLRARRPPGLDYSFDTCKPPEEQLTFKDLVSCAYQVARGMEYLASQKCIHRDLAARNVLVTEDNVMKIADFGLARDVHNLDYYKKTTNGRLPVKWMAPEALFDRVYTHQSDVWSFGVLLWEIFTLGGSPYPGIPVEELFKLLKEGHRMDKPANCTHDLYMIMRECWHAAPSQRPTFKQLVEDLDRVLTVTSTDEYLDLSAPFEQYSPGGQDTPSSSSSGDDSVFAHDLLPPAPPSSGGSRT
Sequence of FGFR1 (P11362 whole entry, looked up): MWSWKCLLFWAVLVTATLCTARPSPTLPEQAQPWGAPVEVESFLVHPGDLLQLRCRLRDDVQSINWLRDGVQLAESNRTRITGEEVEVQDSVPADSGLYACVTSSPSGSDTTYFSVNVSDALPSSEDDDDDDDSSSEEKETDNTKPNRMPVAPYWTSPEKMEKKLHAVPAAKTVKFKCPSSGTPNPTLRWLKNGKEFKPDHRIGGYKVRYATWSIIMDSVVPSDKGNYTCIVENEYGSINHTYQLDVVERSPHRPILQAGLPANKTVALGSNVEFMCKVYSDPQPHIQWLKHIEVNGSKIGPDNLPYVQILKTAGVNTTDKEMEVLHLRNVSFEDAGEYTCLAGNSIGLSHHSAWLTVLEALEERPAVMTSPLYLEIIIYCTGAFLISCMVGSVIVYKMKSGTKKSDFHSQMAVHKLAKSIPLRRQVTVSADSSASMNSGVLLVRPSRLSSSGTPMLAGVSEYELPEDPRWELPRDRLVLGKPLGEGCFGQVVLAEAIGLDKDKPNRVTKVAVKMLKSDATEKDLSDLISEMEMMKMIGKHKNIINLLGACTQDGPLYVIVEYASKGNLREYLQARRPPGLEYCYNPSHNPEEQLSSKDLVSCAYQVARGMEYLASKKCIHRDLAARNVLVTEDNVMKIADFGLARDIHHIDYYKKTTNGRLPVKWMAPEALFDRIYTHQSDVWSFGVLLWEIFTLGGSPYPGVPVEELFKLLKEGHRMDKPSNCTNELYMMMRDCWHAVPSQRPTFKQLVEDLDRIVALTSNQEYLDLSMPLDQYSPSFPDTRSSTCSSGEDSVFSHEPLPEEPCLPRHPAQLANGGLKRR
Sequence of MERTK (Q12866 whole entry, looked up): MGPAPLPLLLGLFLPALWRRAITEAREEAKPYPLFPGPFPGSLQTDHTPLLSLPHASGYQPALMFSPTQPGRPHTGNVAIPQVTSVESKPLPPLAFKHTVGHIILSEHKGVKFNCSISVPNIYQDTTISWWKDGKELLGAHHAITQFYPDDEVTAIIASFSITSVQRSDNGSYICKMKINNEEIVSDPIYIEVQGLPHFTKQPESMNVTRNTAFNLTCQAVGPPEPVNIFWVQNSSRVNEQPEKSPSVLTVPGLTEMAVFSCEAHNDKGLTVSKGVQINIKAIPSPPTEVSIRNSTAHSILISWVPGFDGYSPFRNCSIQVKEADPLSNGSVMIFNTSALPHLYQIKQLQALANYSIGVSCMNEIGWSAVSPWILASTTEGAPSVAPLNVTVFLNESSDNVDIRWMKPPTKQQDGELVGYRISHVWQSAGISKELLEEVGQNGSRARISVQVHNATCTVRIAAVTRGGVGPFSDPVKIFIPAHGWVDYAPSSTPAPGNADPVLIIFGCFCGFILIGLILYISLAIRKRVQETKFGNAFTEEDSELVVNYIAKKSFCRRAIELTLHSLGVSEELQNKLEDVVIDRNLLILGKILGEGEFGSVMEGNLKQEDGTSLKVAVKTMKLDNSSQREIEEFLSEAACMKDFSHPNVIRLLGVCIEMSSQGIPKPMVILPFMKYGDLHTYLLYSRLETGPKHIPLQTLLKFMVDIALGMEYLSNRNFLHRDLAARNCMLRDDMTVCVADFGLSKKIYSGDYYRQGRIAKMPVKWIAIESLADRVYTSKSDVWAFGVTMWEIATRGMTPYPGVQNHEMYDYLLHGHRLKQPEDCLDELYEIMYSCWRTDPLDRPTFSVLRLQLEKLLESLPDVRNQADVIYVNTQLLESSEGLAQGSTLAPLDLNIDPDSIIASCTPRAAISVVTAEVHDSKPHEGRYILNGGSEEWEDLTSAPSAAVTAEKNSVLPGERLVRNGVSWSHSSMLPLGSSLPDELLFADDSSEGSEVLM
Sequence of EPHB1 (P54762 whole entry, looked up): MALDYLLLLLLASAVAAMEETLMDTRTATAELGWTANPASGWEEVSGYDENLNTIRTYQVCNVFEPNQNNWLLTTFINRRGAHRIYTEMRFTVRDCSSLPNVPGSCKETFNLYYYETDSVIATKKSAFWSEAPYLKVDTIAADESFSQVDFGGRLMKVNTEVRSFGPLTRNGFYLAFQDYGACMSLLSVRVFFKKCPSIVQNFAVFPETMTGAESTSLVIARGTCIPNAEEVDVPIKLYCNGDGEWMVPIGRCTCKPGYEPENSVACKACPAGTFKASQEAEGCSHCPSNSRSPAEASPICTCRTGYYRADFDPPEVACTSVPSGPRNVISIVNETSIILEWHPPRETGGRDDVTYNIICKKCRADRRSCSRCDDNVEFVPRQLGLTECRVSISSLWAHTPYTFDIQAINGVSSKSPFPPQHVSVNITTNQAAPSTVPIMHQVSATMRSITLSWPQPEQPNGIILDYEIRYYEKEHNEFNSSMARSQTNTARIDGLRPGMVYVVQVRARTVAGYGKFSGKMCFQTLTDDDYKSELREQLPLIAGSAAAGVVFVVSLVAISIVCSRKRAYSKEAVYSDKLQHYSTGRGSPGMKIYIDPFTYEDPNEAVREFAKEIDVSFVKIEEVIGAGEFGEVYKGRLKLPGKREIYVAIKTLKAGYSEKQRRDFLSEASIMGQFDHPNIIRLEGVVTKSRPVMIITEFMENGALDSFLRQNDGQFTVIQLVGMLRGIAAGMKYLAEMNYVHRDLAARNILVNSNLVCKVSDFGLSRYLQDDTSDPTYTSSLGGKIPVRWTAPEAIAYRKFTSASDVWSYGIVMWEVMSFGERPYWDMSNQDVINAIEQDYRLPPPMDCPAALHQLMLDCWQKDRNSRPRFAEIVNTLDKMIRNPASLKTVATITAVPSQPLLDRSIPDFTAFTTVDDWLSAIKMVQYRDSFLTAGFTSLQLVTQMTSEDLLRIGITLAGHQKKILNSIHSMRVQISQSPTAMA
Sequence of Grb2 SH2 (P62993 whole entry, looked up): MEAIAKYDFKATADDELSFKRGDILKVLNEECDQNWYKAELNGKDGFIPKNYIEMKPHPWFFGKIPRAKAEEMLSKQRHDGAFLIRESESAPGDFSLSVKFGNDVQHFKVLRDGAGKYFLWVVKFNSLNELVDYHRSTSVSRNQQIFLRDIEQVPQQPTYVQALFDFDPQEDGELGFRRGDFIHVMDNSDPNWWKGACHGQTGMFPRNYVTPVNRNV

Row | Sequence | SH2 binding enrichment (Grb2 SH2) | SH2 binding enrichment (c-Src SH2) | SH2 binding enrichment (SHP2-C SH2) | phosphorylation enrichment (Hck) | phosphorylation enrichment (Jak2) | phosphorylation enrichment (c-Abl (mouse)) | phosphorylation enrichment (EPHB2) | phosphorylation enrichment (FGFR1) | phosphorylation enrichment (Fer (mouse)) | phosphorylation enrichment (Fes) | phosphorylation enrichment (EPHB1) | phosphorylation enrichment (AncSZ) | phosphorylation enrichment (FGFR3) | phosphorylation enrichment (MERTK) | phosphorylation enrichment (Fyn) | phosphorylation enrichment (c-Src)
1 | NVGGKYSFLKV [GRM3_Y478_YF] | 1.02 | 0.976 | 1.46 | 0.446 | 0.663 | 0.476 | 0.378 | 0.369 | 0.357 | 0.739 | 0.472 | 0.608 | 0.434 | 0.456 | 0.306 | 0.392
2 | ANAYIYDVQLP [L1CAM_Y420_V421D] | 0.854 | 0.773 | 1.54 | 6.89 | 0.905 | 0.954 | 2.78 | 0.65 | 1.72 | 1.05 | 3.15 | 1.25 | 0.89 | 9.63 | 10.3 | 7.22
3 | NTGVYYDLYGG [PTPN11_Y63_D61V] | 0.95 | 2.56 | 0.644 | 6.5 | 2.33 | 0.715 | 5.04 | 13.7 | 2.49 | 1.18 | 6.16 | 1.88 | 10.8 | 7.75 | 6.07 | 5.31
4 | KVITDYFVDMK [MPP4_Y566_YF] | 0.757 | 0.595 | 0.717 | 0.561 | 0.858 | 0.673 | 0.547 | 0.748 | 0.451 | 1.36 | 0.429 | 0.897 | 0.795 | 0.439 | 0.455 | 0.435
5 | NGPDVYVLPVT [AATK_Y93_L97V] | 0.902 | 0.594 | 0.617 | 0.776 | 0.837 | 0.787 | 0.644 | 0.72 | 0.453 | 1.05 | 0.723 | 1.79 | 0.751 | 2.73 | 2.25 | 1.2
6 | REGAKYVSHCA [ASS1_Y113_G117C] | 1.04 | 0.676 | 0.723 | 0.489 | 0.652 | 0.825 | 0.506 | 0.643 | 0.633 | 0.86 | 0.618 | 0.776 | 0.445 | 0.504 | 0.822 | 0.516
7 | FETDFYRKGGK [INSR_Y1190_YF] | 0.875 | 0.502 | 0.776 | 0.418 | 0.6 | 0.539 | 0.639 | 0.435 | 0.319 | 0.758 | 0.621 | 0.629 | 0.472 | 0.468 | 0.381 | 0.482
8 | AGQEDDDRLRP [RAC1_Y64_Y64D] | 0.867 | 0.528 | 1.28 | 0.591 | 1.12 | 0.703 | 0.669 | 0.607 | 0.572 | 1.28 | 0.497 | 1.15 | 0.637 | 0.439 | 0.608 | 0.46
9 | LTPVKYLLSAT [GSDMC_Y26] | 1.08 | 0.537 | 1.05 | 0.429 | 0.433 | 0.593 | 0.412 | 0.46 | 0.282 | 0.616 | 0.585 | 0.515 | 0.508 | 0.425 | 0.396 | 0.345
10 | GLPQTYCVSGP [DYSF_Y1684] | 0.839 | 0.611 | 0.528 | 0.631 | 0.609 | 0.583 | 0.667 | 0.497 | 0.559 | 0.978 | 0.72 | 0.978 | 0.655 | 0.605 | 0.629 | 0.524
11 | HLLRIYFDITD [MMP27_Y307_W304L_YF] | 0.85 | 0.536 | 0.464 | 0.733 | 2.05 | 1.87 | 0.891 | 0.874 | 0.846 | 2.46 | 1.53 | 1.99 | 1.68 | 0.568 | 0.491 | 0.791
12 | CTTIHYNYKCN [TP53_Y234_M237K] | 1.42 | 1.67 | 1.4 | 0.484 | 0.62 | 0.493 | 0.539 | 0.526 | 0.408 | 0.878 | 0.433 | 0.754 | 0.566 | 0.562 | 0.454 | 0.454
13 | EKGEEYGGGGG [TUBA1A_Y451_E447K] | 0.911 | 0.51 | 0.729 | 0.63 | 0.578 | 0.384 | 0.574 | 0.578 | 0.499 | 0.855 | 0.585 | 0.847 | 0.67 | 0.296 | 0.448 | 0.293
14 | FRSSLYSLMET [MYO5C_Y633_L634S] | 0.672 | 1.24 | 0.564 | 4.03 | 0.77 | 0.629 | 1.84 | 0.898 | 9.51 | 1.16 | 4.17 | 1.12 | 0.947 | 12.4 | 4.25 | 4.03
15 | VMSGPYELKAL [IL1B_Y140] | 0.92 | 0.533 | 1.52 | 0.491 | 0.463 | 0.481 | 0.512 | 0.419 | 0.447 | 0.622 | 0.303 | 0.51 | 0.57 | 0.351 | 0.564 | 0.873
16 | AIQDAYMHITS [ADCY10_Y318] | 0.825 | 1.27 | 0.742 | 0.457 | 0.584 | 0.588 | 0.492 | 0.576 | 0.497 | 0.647 | 0.469 | 0.671 | 0.523 | 0.542 | 0.517 | 0.483
17 | EKAEVYGSENE [RIOK2_Y348] | 0.825 | 0.618 | 0.567 | 0.464 | 0.911 | 0.609 | 0.52 | 0.455 | 0.457 | 1 | 0.464 | 1.11 | 0.625 | 0.445 | 0.566 | 0.483

Row | Sequence | SH2 binding enrichment (Grb2 SH2) | SH2 binding enrichment (c-Src SH2) | SH2 binding enrichment (SHP2-C SH2) | phosphorylation enrichment (Hck) | phosphorylation enrichment (Jak2) | phosphorylation enrichment (c-Abl (mouse)) | phosphorylation enrichment (EPHB2) | phosphorylation enrichment (FGFR1) | phosphorylation enrichment (Fer (mouse)) | phosphorylation enrichment (Fes) | phosphorylation enrichment (EPHB1) | phosphorylation enrichment (AncSZ) | phosphorylation enrichment (FGFR3) | phosphorylation enrichment (MERTK) | phosphorylation enrichment (Fyn) | phosphorylation enrichment (c-Src)
18 | YEEDSYVKRSQ [RET_Y905] | 0.719 | 1.43 | 0.514 | 0.49 | 1.09 | 0.714 | 0.643 | 0.495 | 0.529 | 1.23 | 0.626 | 1.17 | 0.775 | 0.51 | 0.489 | 0.544
19 | ALRASYTPSPA [ESS2_Y418] | 0.893 | 0.536 | 0.624 | 0.333 | 0.294 | 0.329 | 0.34 | 0.366 | 0.367 | 0.471 | 0.352 | 0.448 | 0.389 | 0.326 | 0.332 | 0.369
20 | RRIHSYRGHLW [VHL_Y112] | 0.799 | 0.392 | 0.641 | 2.59 | 4.65 | 3.28 | 1.46 | 2.16 | 1.47 | 2.9 | 2.21 | 2.9 | 1.93 | 2.69 | 1.91 | 3.66
21 | PTKNDYWAMPA [WWOX_Y287_L291P] | 0.732 | 0.586 | 0.669 | 1.82 | 2.69 | 1.39 | 14.4 | 20.6 | 0.469 | 1.03 | 18.6 | 2.02 | 16.3 | 5.26 | 0.987 | 0.952
22 | ASTHIYQIMNH [ITK_Y588_V587I] | 0.923 | 5.44 | 1.41 | 5.65 | 0.469 | 1.24 | 2.63 | 0.735 | 6.35 | 0.754 | 8.67 | 0.562 | 0.624 | 6.62 | 4.85 | 4.36
23 | YIPSNYVAEDR [FRK_Y104] | 1 | 0.761 | 0.948 | 0.501 | 0.721 | 0.685 | 0.623 | 0.634 | 0.434 | 0.954 | 0.519 | 0.921 | 0.72 | 0.535 | 0.523 | 0.536
24 | LEKISYVFMKR [SSX7_Y48_YF] | 0.85 | 0.432 | 0.831 | 1.14 | 1.72 | 0.811 | 1.21 | 0.969 | 0.879 | 2.51 | 1.65 | 1.9 | 1.42 | 0.538 | 0.963 | 0.581
25 | NVADHYRVYKP [ATP6V0D2_Y271_G272R] | 0.619 | 0.469 | 0.517 | 0.384 | 0.561 | 0.703 | 0.574 | 0.489 | 0.433 | 0.767 | 0.54 | 0.721 | 0.479 | 0.426 | 0.501 | 0.412
26 | LLANAYIFVVQ [L1CAM_Y418_YF] | 1.31 | 0.396 | 0.605 | 0.569 | 1.79 | 1.44 | 1.13 | 1 | 0.793 | 2.13 | 0.757 | 1.46 | 1.18 | 0.482 | 0.606 | 0.538
27 | IGMLIYFARKA [VCAM1_Y718_I716L] | 1.43 | 0.993 | 1.23 | 0.536 | 0.703 | 0.508 | 0.481 | 0.461 | 0.425 | 0.846 | 0.518 | 0.934 | 0.456 | 0.496 | 0.453 | 0.424
28 | PDGVEYLKNDP [GRIN3A_Y831] | 0.929 | 0.578 | 0.479 | 1 | 0.929 | 0.709 | 0.524 | 0.537 | 0.75 | 1.36 | 0.693 | 1.54 | 0.771 | 0.389 | 0.851 | 0.496
29 | ISIFYYAKGQP [MPZ_Y82_H81Y] | 0.78 | 0.409 | 0.656 | 0.429 | 1.36 | 1.19 | 0.61 | 0.563 | 0.496 | 1.72 | 0.532 | 1.38 | 0.674 | 0.504 | 0.52 | 0.649
30 | VNCHQYDGLVG [ATP2A2_Y407_E412G] | 0.785 | 11.1 | 0.686 | 0.502 | 0.736 | 0.684 | 0.546 | 0.559 | 0.518 | 0.847 | 0.433 | 0.931 | 0.673 | 0.451 | 0.48 | 0.559
31 | VDTLWYKFLKR [EPM2A_Y86_F84L] | 0.943 | 0.426 | 0.573 | 0.441 | 0.892 | 0.68 | 0.763 | 0.414 | 0.466 | 1.11 | 0.46 | 0.868 | 0.611 | 0.374 | 0.411 | 0.366
32 | ESLRPYDVMDV [KCNQ2_Y562] | 0.83 | 12.9 | 0.558 | 0.602 | 0.876 | 0.595 | 0.683 | 0.455 | 0.846 | 1.14 | 0.583 | 1.03 | 0.665 | 0.437 | 0.668 | 0.719
33 | IRFPPYTDWNQ [ALDH3B2_Y365_H361R_YF] | 0.886 | 0.768 | 0.748 | 0.439 | 0.555 | 0.45 | 0.392 | 0.54 | 0.53 | 0.739 | 0.396 | 0.741 | 0.493 | 0.421 | 0.395 | 0.328
